Reference: publication PMC10786891, “Massively parallel profiling of RNA-targeting CRISPR-Cas13d”
Residue numbers refer to the chain shown, from its start. In names and notes the source's numbering stands.

T1: EsCas13d, nuclease-dead (Eubacterium siraeum, UniProt B0MS50, R295A;H300A;R849A;H854A)
T1 sequence: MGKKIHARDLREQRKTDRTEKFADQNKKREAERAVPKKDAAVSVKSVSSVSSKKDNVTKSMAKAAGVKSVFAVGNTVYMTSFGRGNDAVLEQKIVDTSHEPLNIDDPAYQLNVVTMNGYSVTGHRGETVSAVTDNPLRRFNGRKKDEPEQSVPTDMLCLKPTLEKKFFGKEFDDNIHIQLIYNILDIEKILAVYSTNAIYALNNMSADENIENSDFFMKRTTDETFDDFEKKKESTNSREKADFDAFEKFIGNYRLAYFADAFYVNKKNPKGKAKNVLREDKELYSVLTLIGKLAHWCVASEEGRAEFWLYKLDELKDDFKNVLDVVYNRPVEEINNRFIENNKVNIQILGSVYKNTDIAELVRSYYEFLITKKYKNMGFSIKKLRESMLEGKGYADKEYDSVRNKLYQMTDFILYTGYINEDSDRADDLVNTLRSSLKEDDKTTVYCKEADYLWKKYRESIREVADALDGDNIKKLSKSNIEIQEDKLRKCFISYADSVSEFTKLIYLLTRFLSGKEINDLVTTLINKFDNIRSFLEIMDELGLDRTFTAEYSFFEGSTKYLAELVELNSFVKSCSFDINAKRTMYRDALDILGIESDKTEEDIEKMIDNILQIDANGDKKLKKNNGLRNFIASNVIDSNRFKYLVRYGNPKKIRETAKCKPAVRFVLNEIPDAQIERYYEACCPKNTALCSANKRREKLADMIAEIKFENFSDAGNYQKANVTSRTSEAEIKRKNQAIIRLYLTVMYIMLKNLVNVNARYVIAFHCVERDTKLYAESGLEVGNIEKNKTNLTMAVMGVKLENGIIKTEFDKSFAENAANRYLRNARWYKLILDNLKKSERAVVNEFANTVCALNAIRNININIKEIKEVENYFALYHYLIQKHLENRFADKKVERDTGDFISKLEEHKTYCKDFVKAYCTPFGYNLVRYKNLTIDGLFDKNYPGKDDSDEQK

B1: target 1 C4G,C22A (mixed)
RNA 1: CACCCGUGCAAAAAUGCAGGGGUCUAAAACUGAGCGGAUAACCUCUCUAUGG
RNA 2: GGGAAUGGAUCCACAUCUACGAAUUCGUAACAUAGAGAGGUUAUCCGGUCACCGAGAUCGGAAGAGCACACGU
B2: target 1 insU 3' of 22,insG 3' of 6 (mixed)
RNA 1: B1 RNA 1
RNA 2: GGGAAUGGAUCCACAUCUACGAAUUCGUACUCAUAGAGAGGUUAUCCGGCUCACCGAGAUCGGAAGAGCACACGU
B3: target 1 C2G,U3G (mixed)
RNA 1: B1 RNA 1
RNA 2: B1 RNA 2 with A30C, G48C, U49G, C50G
B4: target 1 insU 3' of 18,insU 3' of 18 (mixed)
RNA 1: B1 RNA 1
RNA 2: GGGAAUGGAUCCACAUCUACGAAUUCGUACCAUAUUGAGAGGUUAUCCGCUCACCGAGAUCGGAAGAGCACACGU
B5: target 1 G12C,G13C (mixed)
RNA 1: B1 RNA 1
RNA 2: B1 RNA 2 with A30C, G39C, G40C, G48C
B6: target 1 C4A,U11G (mixed)
RNA 1: B1 RNA 1
RNA 2: B1 RNA 2 with A30C, U41G, G48A
B7: target 1 C4U,C6U (mixed)
RNA 1: B1 RNA 1
RNA 2: B1 RNA 2 with A30C, C46U, G48U
B8: target 1 insU 3' of 5 (mixed)
RNA 1: B1 RNA 1
RNA 2: GGGAAUGGAUCCACAUCUACGAAUUCGUACCAUAGAGAGGUUAUCCGUCUCACCGAGAUCGGAAGAGCACACGU
B9: target 1 insA 3' of 19,insG 3' of 3 (mixed)
RNA 1: B1 RNA 1
RNA 2: B2 RNA 2 with U31C, C32A, A33U, U34A, G49C, C50U, U51G
B10: target 1 insG 3' of 10,insA 3' of 10 (mixed)
RNA 1: B1 RNA 1
RNA 2: B4 RNA 2 with U35G, U36A, A40G, G41U, G42U, U43G, U44A
B11: target 1 insG 3' of 16,insC 3' of 16 (mixed)
RNA 1: B1 RNA 1
RNA 2: B4 RNA 2 with U35G, U36A, A38C
B12: target 1 insA 3' of 15,insU 3' of 5 (mixed)
RNA 1: B1 RNA 1
RNA 2: B2 RNA 2 with U31C, C32A, A33U, U34A, A35G, G36A, A37G, G38A, G49U
B13: target 1 C7U,U8A (mixed)
RNA 1: B1 RNA 1
RNA 2: B1 RNA 2 with A30C, U44A, C45U, G48C
B14: target 1 insA 3' of 22,insC 3' of 12 (mixed)
RNA 1: B1 RNA 1
RNA 2: B2 RNA 2 with U31A, U42C, A44U, U45A, C46U, G48C
B15: target 1 U3G,G15U (mixed)
RNA 1: B1 RNA 1
RNA 2: B1 RNA 2 with A30C, G37U, G48C, U49G
B16: target 1 insA 3' of 5,insG 3' of 2 (mixed)
RNA 1: B1 RNA 1
RNA 2: GGGAAUGGAUCCACAUCUACGAAUUCGUACCAUAGAGAGGUUAUCCGACUCGACCGAGAUCGGAAGAGCACACGU
B17: target 1 G12A,C21A (mixed)
RNA 1: B1 RNA 1
RNA 2: B1 RNA 2 with A30C, C31A, G40A, G48C
B18: target 1 insA 3' of 22,insA 3' of 13 (mixed)
RNA 1: B1 RNA 1
RNA 2: B2 RNA 2 with U31A, G41A, U42G, A44U, U45A, C46U, G48C
B19: target 1 G12C,C21U (mixed)
RNA 1: B1 RNA 1
RNA 2: B1 RNA 2 with A30C, C31U, G40C, G48C
B20: target 1 G12U,A18C (mixed)
RNA 1: B1 RNA 1
RNA 2: B1 RNA 2 with A30C, A34C, G40U, G48C
B21: target 1 insA 3' of 21,insA 3' of 4 (mixed)
RNA 1: B1 RNA 1
RNA 2: B2 RNA 2 with U31C, C32A, G49C, C50A
B22: target 1 insC 3' of 18,insC 3' of 15 (mixed)
RNA 1: B1 RNA 1
RNA 2: B4 RNA 2 with U35C, U36G, G37A, A38G, G39C
B23: target 1 insC 3' of 22,insA 3' of 10 (mixed)
RNA 1: B1 RNA 1
RNA 2: B2 RNA 2 with U31C, U45A, C46U, G48C
B24: target 1 C2A,U8G (mixed)
RNA 1: B1 RNA 1
RNA 2: B1 RNA 2 with A30C, U44G, G48C, C50A
B25: target 1 insU 3' of 18,insA 3' of 10 (mixed)
RNA 1: B1 RNA 1
RNA 2: B4 RNA 2 with U36G, G37A, A38G, G39A, A40G, G42U, U44A
B26: target 1 G13C,G15A (mixed)
RNA 1: B1 RNA 1
RNA 2: B1 RNA 2 with A30C, G37A, G39C, G48C
B27: target 1 insC 3' of 19,insA 3' of 3 (mixed)
RNA 1: B1 RNA 1
RNA 2: B2 RNA 2 with U31C, C32A, A33U, U34C, G49C, C50U, U51A
B28: target 1 U3A,C6A (mixed)
RNA 1: B1 RNA 1
RNA 2: B1 RNA 2 with A30C, C46A, G48C, U49A
B29: target 1 insC 3' of 20,insU 3' of 7 (mixed)
RNA 1: B1 RNA 1
RNA 2: B2 RNA 2 with U31C, C32A, A33C, C47U, G48C
B30: target 1 U10A,G13A (mixed)
RNA 1: B1 RNA 1
RNA 2: B1 RNA 2 with A30C, G39A, U42A, G48C

biological target: T1, EsCas13d, nuclease-dead; assay: crRNA (strand 1, pre-loaded); Mg2+; 40 mM Tris-HCl pH 7.5, 150 mM NaCl, 6 mM MgCl2, 1 mM DTT, 0.1% Tween-20, 0.2 mg/ml BSA; 25 C; 10 min per concentration, then washed; details: tags: His6-TwinStrep-SUMO cleaved; N-terminal SNAP kept (SNAP-Surface 488); label: 3' end held by stalled T7 RNA polymerase

Binder	Kd
B1	5.9 ± 0.4 nM
B2	34 ± 7 nM
B3	4.43 ± 0.34 nM
B4	30.9 ± 2 nM
B5	30 ± 6 nM
B6	8.4 ± 0.7 nM
B7	28 ± 8 nM
B8	18.1 ± 2.5 nM
B9	13.2 ± 0.6 nM
B10	10.7 ± 0.6 nM
B11	31.5 ± 1.8 nM
B12	27.9 ± 2.9 nM
B13	12.9 ± 0.7 nM
B14	20.1 ± 1.2 nM
B15	~60 nM
B16	8.3 ± 0.7 nM
B17	34.8 ± 2.2 nM
B18	6 ± 0.4 nM
B19	6 ± 0.5 nM
B20	40 ± 4 nM
B21	10.2 ± 1.3 nM
B22	56 ± 8 nM
B23	28.2 ± 3.4 nM
B24	19.4 ± 1.3 nM
B25	41.2 ± 3.1 nM
B26	46 ± 9 nM
B27	29.8 ± 2.1 nM
B28	5.02 ± 0.21 nM
B29	13.2 ± 1 nM
B30	9.5 ± 1 nM
